Measured values: the supplement of paper PMC9732359
± gives the uncertainty stated by the source.

Assay: protein stability index of a GFP-peptide fusion (yeast GPS) (PSI 1-4); higher = more stable; sorted into four equal gates, so the index is relative within each strain
Summary of the method: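 Tiled 17-residue peptides from yeast proteins were fused downstream of GFP on a plasmid that also expresses Cherry, and the pooled library was carried in yeast. Mid-log cultures grown in leucine-free medium were sorted into four equal gates by GFP/Cherry fluorescence ratio. Plasmids from each gate were PCR-amplified and Illumina-sequenced, and reads were assigned to strains by barcodes. Each peptide's protein stability index is the sum, over gates, of the gate's read frequency multiplied by its gate number.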

Row | Sequence | protein stability index (doa10∆) | protein stability index (pdr5∆) | protein stability index (san1∆) | protein stability index (ubr1∆)
1 | MKLDDSSKTRNVLNRIQ [ITC1] | 1.78 ± 0.082 | 1.3 ± 0.051 | 2.71 ± 0.12 | 1.38 ± 0.056
2 | KQRTKKEDKSEAIDGNG [SNF2] | 3.55 ± 0.13 | 3.36 ± 0.075 | 3.17 ± 0.073 | 3.19 ± 0.072
3 | PKLLDALNKISKYYPGV [SNU114] | 3.08 ± 0.076 | 2.37 ± 0.072 | 2.8 ± 0.065 | 2.88 ± 0.044
4 | APQVYIITKNENFLKEV [GAL11] | 3.37 ± 0.24 | – | – | 3.5 ± 0.19
5 | TRKSLNNAVRFSKQCLI [ECM29] | 2.15 ± 0.06 | 2.96 ± 0.061 | 2.42 ± 0.06 | 2.56 ± 0.05
6 | YDEVKKHWGGGILGNKA [RPL8A] | 3.16 ± 0.11 | 3.4 ± 0.089 | 3.44 ± 0.06 | 3.23 ± 0.061
7 | VNVEKFNVEYFAKEKLT [RPL6A] | 1.84 ± 0.039 | 1.96 ± 0.044 | 2.08 ± 0.069 | 2.37 ± 0.036
8 | SEHVFDYFFYFLVLYDV [NUT1] | 2.12 ± 0.039 | 2.06 ± 0.033 | 2.26 ± 0.045 | 2.36 ± 0.034
9 | LPLYEKNTLLERLKQLT [SWP82] | 2.71 ± 0.16 | 2.87 ± 0.088 | 2.73 ± 0.1 | 2.87 ± 0.22
10 | QLDLCKLYFQLFLNTGC [SRP68] | 2.01 ± 0.038 | 1.4 ± 0.042 | 1.45 ± 0.092 | 1.7 ± 0.037
11 | YASKAVPHYNRLDSYKV [RPL25] | 2.11 ± 0.14 | 2.7 ± 0.1 | 2.34 ± 0.12 | 1.47 ± 0.11
12 | ERAARVAAKIAALAGQQ [RPL5] | 2.71 ± 0.13 | 3.03 ± 0.17 | 2.57 ± 0.15 | 3.11 ± 0.079
13 | GGSNYMSNLPFGLGYGD [RPC31] | 2.83 ± 0.28 | 3.15 ± 0.19 | – | 3.16 ± 0.18
14 | SIRSRRPYQVNVLIGGY [PRE1] | 2.34 ± 0.17 | 2.88 ± 0.09 | 1.71 ± 0.19 | 3.04 ± 0.1
15 | RAQHVKKLATRPKCGDC [RPL34A] | 3.06 ± 0.14 | 3.06 ± 0.12 | 2.69 ± 0.11 | 3.13 ± 0.084
16 | NESSSNTTVISDKQRRL [DIS3] | 3.15 ± 0.086 | 3.21 ± 0.086 | 2.98 ± 0.061 | 3.05 ± 0.058
17 | QQLQVLARYLKMDLDNG [FAS2] | 1.9 ± 0.13 | 2.04 ± 0.089 | 2.78 ± 0.079 | 2.31 ± 0.051
18 | WVTEVLGNDIPHDLIIG [BRR2] | 2.17 ± 0.042 | 2.95 ± 0.056 | 2.29 ± 0.063 | 2.89 ± 0.046
19 | LVLDLLTWLSSFSVCKI [IRR1] | 2.21 ± 0.06 | 1.59 ± 0.05 | 1.65 ± 0.073 | 1.71 ± 0.039
20 | SFYRVEKIKKINYHQYI [SSN2] | 1.18 ± 0.081 | 1.36 ± 0.06 | 1.39 ± 0.2 | 1.62 ± 0.1
21 | EVTEGQAEATEWAEENA [RPS0B] | 2.44 ± 0.27 | 3.22 ± 0.22 | 2.44 ± 0.17 | 2.44 ± 0.14
22 | ETRPAQVILPMSPNHGT [FAS2] | 2.43 ± 0.042 | 2.38 ± 0.04 | 2.46 ± 0.071 | 2.36 ± 0.036
23 | DQWLEEYKKHFPPNLEK [UBP6] | 2.77 ± 0.081 | 3.06 ± 0.053 | 2.88 ± 0.05 | 2.96 ± 0.067
24 | ADNNDLQESINHVMYTE [ECM29] | 2.66 ± 0.086 | 3.02 ± 0.096 | 3.05 ± 0.1 | 3.02 ± 0.054
25 | FIMVKGCIPGNRKRIVT [RPL3] | 1.39 ± 0.063 | 1.48 ± 0.08 | 1.57 ± 0.2 | 1.28 ± 0.06
26 | QDSTSENVKIINYLLTL [RPN2] | 3.42 ± 0.074 | 3.1 ± 0.079 | 3.16 ± 0.071 | 2.9 ± 0.12
